This data set in a line: label from the status in PepcDB records.
As to “VLRWITAGESHGRALVAVVEGMVAGVHVTSADIADQLARRRLGYGRGARMTFERDAVTVLSGIRHGSTLGGPIAIEIGNTEWPKWETVMAADPVDPAELADVARNAPLTRPRPGHADYAGMLKYGFDDARPVLERASARETAARVAAGTVARAFLRQALGVEVLSHVISIGASAPYEGPPPRAEDLPAIDASPVRAYDKAAEADMIAQIEAAKKDGDTLGGVVEAVALGLPVGLGSFTSGDHRLDSQLAAAVMGIQAIKGVEIGDGFQTARRRGSRAHDEMYPGPDGVVRSTNRAGGLEGGMTNGQPLRVRAAMKPISTVPRALATVDLATGDEAVAIHQRSDVCAVPAAGVVVETMVALVLARAALEKFGGDSLAETQRNIAAYQRSVADREAPAARVSG”, the protein production entry is given as “not failed”.

Consider “MGRVLDRIEVVAEEIRGQAVQSEADCRLTDAAAGLLRDSGAIRLLQPRLYGGYEVHPREFAETVMGVAALDGASGWVTGIVGVHPWELAFADPQVQEEIWGEDNDTWMASPYAPMGVATPVDGGYVLKGRWSFSSGTDHCQWAFLGAMVGDGEGGIATPSSLHVILPRTDYQIVEDTWDVIGLRGTGSKDLIVDGAFVPGYRTLNAAKVMDGRAQKEAGRPEPLFNMPYSCMFPLGITAAVIGITEGALACHIAVQKDRVAITGQKIKEDPYVLSAIGESAAEINASRVSLIETADRFYDKVDAGKEITFEERAIGRRTQIAAAWRAVRAADEIFARAGGGALHYKTPMQRFWRDAHAGLAHAVHVPGPTNHASALTQLGGEPQGMMRAMI”, for which the protein production result is recorded as “not failed”.

For the sequence “MALTFYQYPKCGTCQKAKKWLDQHGIEVNSVHIVEQPPSKEELKQLYEQSGLELKKFFNTSGKKYRELGLKDKVKEASEDELLETLASDGMLIKRPILTDGDKVTVGFKEAEYEETWKK”, the protein production entry is listed as “failed”.

For “GIKDSPVNKVEPNDTLEKVFVSVTKYPDEKRLKGLSKQLDWSVRKIQCWFRHRRNQDKP”, the protein production result is “not failed”.

Regarding “MNQQLLAKTFVELADNLVADFDLIDFLRLLTDRCVGMLDASAAGVLLADRNGELRVMAASDEQVRLLELFQLQNDEGPCLDCFRTGAPVTVPDLSAVTARWPRFAVQARRSGFGAVQALPMRLRDEVVGALNLFRATPGPFDPAATPLAQALADVATISLLQQRTAHRSTVLNEQLQTALN”, the protein production result is reported as “not failed”.

Consider “MIGELVKDKILIKNIEDARLIYKMGYYGKPIGISKPKSAEEINSELILSLIEGVYLVKKGKLEIVSNGERLDFERLYQIGVTQIPRFRILYSVYEDLREKGYVVRSGIKYGADFAVYTIGPGIEHAPYLVIALDENSQISSNEILGFGRVSHSTRKELILGIVNLTNGKIRYIMFKWLKM”, for which the protein production entry was “not failed”.

As to “MSIRLRKTVMSVLLGALLAGNLLPAQADTQDRLPDIGTTAGGTLSINQELAMGDFYVRQLRAGAPLINDPLLSDYINQLGNRLVKQADSVRTPFHFYLIRNDDINAFAFFGGNVVLHSALFRYADSESELASVLAHEISHVTQRHLARSMESQQRSAPLTWVGALGSILLAMANPQLGMAALSGTLAGAQQGMITFTQSNEQEADRIGIQVLQRAGFDPQAMPNFLQKLADQSRYASRPPEMLLTHPLPESRLSDARNRANQMRPTPVQSSQDFLFAKIRTFGMYGSPDRPLNDDLLVQWEKGNVREQLAAKYGRAIQLYQAKKYDEARNVLQPLLSSAPDNPWFLDMMTDIDLGQNRAAQAIARLQNVTGMQANPVLQLNLANAYVEGKQPAAAGKILYRYTYAHPDDPNGWDLLAQTAAAQGQRAEELAARAESLALNGQLDQSIRLLSNASSLVKLGSLEQARYDARIDQLRQLQQRFRQYQKS”, the protein production entry is reported as “failed”.

As to “MKGMKYHDYIWDLGGTLLDNYETSTAAFVETLALYGITQDHDSVYQALKVSTPFAIETFAPNLENFLEKYKENEARELEHPILFEGVSDLLEDISNQGGRHFLVSHRNDQVLEILEKTSIAAYFTEVVTSSSGFKRKPNPESMLYLREKYQISSGLVIGDRPIDIEAGQAAGLDTHLFTSIVNLRQVLDI”, the protein production result was “not failed”.

As to “MAKVTERYDVTWEEMRDKMRKWREENSRNSEQIMEVGEELINDYASKLGDDIWIIYEQVMIAALDYGRDDLALFCLQELRRQFPGSHRVKRLTGMRFEAMERYDDAIQLYDRILQEDPTNTAARKRKIAIRKAQGKTVEAIRELNEYLEQFVGDQEAWHELAELYINEHDYAKAAFCLEELMMTNPHNHLYCQQYAEVKYTQGGLENLELSRKYFAQALKLNNRNMRALFGLYMSASHIASNPKASAKMKKDNIKYASWAANQINRAYQFAGRSKKETKYSLKAVEDMLETLQITQS”, the protein production result is given as “failed”.

The record behind these values is a protein production outcome set (Wang et al. 2014).
